The text below walks through data of patent publication US20240287489A1, “CHITINOLYTIC ENZYME-BASED PLANT PROTECTION AGENTS” (GLOBACHEM NV, priority 2021, published 2024).

Series [1] in a line: Reducing end assay, specific chitinase activity of expression and purification fractions. It counts as biochemical. The following applies: chitin powder, 16 h at 30° C. The protocol: Integrity and correctness of the constructs was confirmed by colony PCR and Sanger-sequencing. All constructs were transformed into E. coli BL21 and expressed recombinantly. Expression levels of the target enzymes were determined densitometrically after immunoblot detection for cytosolic and secreted expression. Enzymatic activity was determined for all samples using a reducing end assay. […] Furthermore, it was confirmed that these enzymes are efficiently released into the culture supernatant, rendering cell lysis unnecessary for future production cycles.
A two-step purification of the selected recombinant enzymes with PelB signal peptide form the culture supernatant was carried out with an initial ammonium sulfate precipitation step and a sequential IMAC purification of the solubilized protein precipitate. Elution fractions were pooled and an SDS-PAGE and immunoblot was prepared loading the same volume for each sample (FIG. 4). Expression levels of the five chitinases varied largely, and C1 was detected in much greater abundance relative to the others. […] The observed molecular weight of all enzymes in SDS-PAGE gel and immunoblot was not in accordance with the expected theoretical molecular weight taking into account that a 6×His tag was added C-terminally to the enzymes and in general, bands for all enzymes were detected at a higher molecular weight. For all samples, unspecific bands could detected at ˜25 kDa and ˜50 kDa after IMAC purification, most likely representing host cell protein-contaminations. The amount of protein in the culture media, ammonium sulfate concentrates and the final dialyzed elution fractions was determined using the BCA assay and the same fractions were incubated with chitin powder for 16 h at 30° C. followed by the quantification of reducing sugars to measure specific chitinase activity (Table 4.2). Thereby it was confirmed that all target enzymes were successfully enriched during purification according to the specific activity.
For the determination of enzymatic activity of recombinant chitinases, a reducing end assay was carried out [Svein et al., Carbohydr Polym, 2004. 56(1): p. 35-39.]. Fractions containing chitinases were incubated with 5% (w/v) chitin powder extracted from shrimp shells (˜400.000 g/mol; Carl Roth) in MAT buffer for 2 h in an overhead shaker at ambient temperature (standard conditions). Samples were centrifuged at 13000×g for 2 min and 40 μl of the supernatant was mixed with 40 μl 0.5 M NaOH and 40 μL of a reagent containing 1.5 mg/ml 3-Methyl-2-benzothiazolinonhydrazon and 0.75 mg/ml Dithiothreitol. Samples were incubated at 80° C. for 15 min and then thoroughly mixed with 80 μl of 0.5% (w/v) FeNH4(SO4)2)×12H2O, 0.5% (w/v) sulfamic acid and 0.25 M HCl. After cooling down to room temperature, 100 μl of the samples were measured at 620 nm. A calibration curve of N-acetyl-glucosamine was constructed freshly for each measuring cycle. One unit [U] was defined as the amount of enzyme required to release 1 μmol of reducing sugars per hour.

A short description of series [2]: Enzyme kinetics on chitin powder (Michaelis-Menten non-linear fit). The format is biochemical. The conditions noted are these: 2 μM enzyme, 0-150 mg/ml chitin powder. The protocol:
Enzyme kinetics were determined using chitin powder as a substrate and the optimum enzyme to substrate ratio could be determined as well as Vmax and Km values. The concentrations of chitin powder varied
from 0 mg/ml up to 150 mg/ml while amount of enzyme was kept constant (2 μM). The initial velocities (V0) versus substrate concentration ([S]) were plotted as Lineweaver-Burk and Michaelis-Menten curves using GraphPad software (FIG. 7).
Maximum reaction velocities (Vmax) and Michaelis-Menten constants (Km) were determined using a non-linear fit Michaelis-Menten model (Table 4.6). Thereby, optimum enzyme-substrate ratios were determined that would allow a maximization of substrate conversion rates. Furthermore, the Km indicated the reciprocal enzyme-substrate affinity for C1-C5. Higher Km values reflect an overall lower affinity and thus reduced conversion efficiencies. […] In comparison, higher Km values for C2 and C5 reflected an overall lower affinity to insoluble chitin.
Enzyme samples were incubated at different temperature (10-60° C., 10° C. increment) and pH (4-11, increment 1) using different buffer systems (Acetate, Tris-HCl, MES, total molar concentration 100 mM), as well as NaCl content (0, 1. 2.5, 5, 10 and 20% w/v) to determine optimum reaction conditions. All experiments were carried out at 1.0 ml scale using 2 μM of the respective enzymes and a 5% (wv) suspension of chitin powder extracted from shrimp shells (˜400.000 g/mol; Carl, Roth) in 100 mM MAT buffer. For the determination of the substrate specificity, chitin powder (5% w/v), glycol chitin (10% v/v), colloidal chitin (5% w/v), chitosan [DA 15-25%, medium molecular weight, Sigma-Aldrich] (5% w/v) and microcrystalline cellulose powder (Sigma Aldrich) (5% w/v) were investigated, respectively. The effect of several potential co-factors on activity was elucidated at a concentration of 1 mM. Additionally, the effect of detergents [SDS 0.5% (w/v), Tween-20 and Triton X-100 both at 0.5% (v/v)] and chemicals (Imidazole 100 mM, EDTA 1 mM) on enzymatic activity was assessed. Samples were incubated in a thermomixer for 16 h at 900 rpm. After incubation, samples were analyzed using the enzyme assay. Thermostability was assessed after incubation of recombinant chitinases at 60° C. for different durations followed by the quantification of residual enzyme activity under standard assay conditions.

In another series the test system is Gibberella zeae. It counts as cell-based. The conditions noted are these: start concentration 100 μg/ml. On the set-up: key: xx = no growth/strong inhibition; x = small inhibition.
The test system of the next series is Fusarium oxysporum. Put plainly: Minimum inhibitory concentration (MIC) test on fungal pathogens. The format is cell-based. On the set-up: key: xx = no growth/strong inhibition; x = small inhibition. The conditions noted are these: start concentration 100 μg/ml.
Setting [3] is: Dialysed elution fraction after IMAC.

B1: Chitinase 4: chitinolytic enzyme from P. orarium, SEQ ID NO: 4, recombinant with PelB signal peptide and 6×His tag (protein, listed as Photobacterium orarium)
chain: MAQAAANCRPDGLYQTPGVTVPYCTVYDQDGREKMGVDHPRRVIGYFTSWRSGNDPQSSYLVNDIPWDSLTHINYAFVSIGSDGKVNIGNVNNPDNPAVGKEWPGVEIDPALGFKGHFGALATAKAQHGVKTLISIGGWAETGGHFDDNGNRVADGGFYTMTTNADGSINHQGIQTFADSAVAMMRQYKFDGLDIDYEYPTSMQGAGNPDDFAYSDAMRPHLMKSYHELMKVLREKLDQASAQDGHHYMLTIAAPSSGYLLRGMETMSVTKYLDYVNIMSYDLHGAWNDYVGHNASLFDSGLDAELEAGNVYGTAQYKKTGYLNTDWAYHYFRGSMPAGRINIGVPYYTRGWQGVTGGTNGLWGKAALPNQSDCPTGTGAGTSNCGYGAIGIDNMWHDKDANGNEMGAGSNPMWHAMNLANGVYGSYTAAYGLDPVNDPQDALTGTYTRHYDSVSVAPWLWNADKKVFLSTEDKESINTKADYVIEQGIGGIMFWELAGDYSCYNLDANGNRTTVDPTENACKTGNGEYHMGDTMTKAIHNKFATATPYGNTLAEGAIPTEAVNIDVSVTGFKVGDQNYPLNPTMTLTNKTGQTLPGGTEFQFDIPTSTPDNMSDQSGANLQVISSGHTRGDNIGGLDGNFHRVAFTLPSWKQLGNNESFELTLNYFLPISGPANYSVRVNNADYALAFEQPDLPIADLSNGGGDNGGGDGNNGDCVTTGVNTYPNWPQTDWAGNPSHAGTGDKIIYNGAVYQAKWWTNSVPGSDGSWDTVCTVQIE
modifications: PelB signal peptide; 6xHis tag; Chitinase 4
B1: the Specific activity in series [1] (Culture supernatant fraction) amounted to 0.07 U/mg. In addition, the Specific activity in series [1] (setting [3]) is on record as 6.07 U/mg. In series [2], the “Km (enzyme-substrate affinity)” value was found to be 22.2 mg/mL and the “Vmax (maximum reaction velocity)” value was 218.6 U/ml. Moreover, in the series on Gibberella zeae, the “growth inhibition of Gibberella zeae in the MIC test” value (shortened to “growth inhibition of Gibberella zeae”) was “x”. Besides, the “growth inhibition of Fusarium oxysporum in the MIC test” value with Fusarium oxysporum is recorded as “xx”.

B2: Chitinase 3: chitinolytic enzyme from P. orarium, SEQ ID NO: 3, recombinant with PelB signal peptide and 6×His tag (protein, listed as Photobacterium orarium)
chain: MALAAPGTPQLAWMETDYAIVEVDQAATAYKDLVTVKNAADVPVAWQRYSGETADHWKVKLNGNVAFEESINPASSGAGSTTLSITQGGQYALTVELCSGSGAEEACSSSPATNIVVADTDGSHLDPLPMNVDPNNGTYSTPADTVVGAYFVEWGVFGRKFTVDKIPAQNLTHILYGFIPVCGPNESLGEIESGNSLAALNRACAGTPDFEVAIHDPWAAVQMPQPQSGHTYSTPYKGNYGQLMALKQRYPDLKVIPSIGGWTLSDPFFSFTDKSKRDVFVASVKKFLQTWKFFDGVDIDWEFPGGKGANTTLGDPVNDGPAYVALMRELRTMLDGLEAETGRQFELTSAIGVGYDKIDVVNYAEASQYMDYIFNMSYDFYGGWSNVTGHQTALNCGSHLTADQCNGTGVDENGEPRQGPAYTTAHGVERLLAQGVPANKLVVGAAMYGRGWTGVTQASMTDPSNPMTGVGNGAVAGSWEAGVIDYKDVVTRYENKAGVVLGYDEQAEAPWAYDPSNGDLVTYDSPRSIMAKGQYVRDLGLAGLFAWEIDADNGDILNAMQESLAGAPAGNRAPVARAGSDQQVNTAATVTLNGSSSTDSDGQIAGYQWVQTSGPALTLNGANTASATISVPDVTVDTQYVFTLTVTDNEGATATDSITVTAKAPGAQNTAPVASLTGPGTANADDVITLDASQSTDADGDTLTYDWTVPAGVNAVINGSSLSFTADSYTTDTALSFSVSVSDGTASDAASLTVTIAKDESGTGGEGDFPAYVEGTAYQAGDQVSNGGVNFECKPYPYSGWCSGAAWAYEPGVGVYWQDAWTQLIE
modifications: PelB signal peptide; 6xHis tag; Chitinase 3
On to B2, for which the Specific activity in series [1] (Culture supernatant fraction) was 0.13 U/mg. In series [1] (setting [3]), the Specific activity amounted to 8.13 U/mg. Also, in series [2], the “Km (enzyme-substrate affinity)” value was determined as 15.2 mg/mL and the “Vmax (maximum reaction velocity)” value was 206.2 U/ml. Besides, the “growth inhibition of Gibberella zeae” value in the series with Gibberella zeae is reported as “x”. In addition, the “growth inhibition of Fusarium oxysporum in the MIC test” value in the series on Fusarium oxysporum is “xx”.

B3: Chitinase 2: chitinolytic enzyme from P. orarium, SEQ ID NO: 2, recombinant with PelB signal peptide and 6×His tag (protein, listed as Photobacterium orarium)
chain: MATANYNPDGVYSAGEQVIYQGATYQALRSTENEAPDTYLGDAWQQVNAQNVTSSTTPTYPAYQSSAVYVGGDHVSYNSQIYKAKWWTQGEAPDATPGTGVWEWVSADNNPDPGPGPDPDPTPEPTPANGIIGQNPDGSYIMSKTYLDAREAELTSSPEFAAVLASISTRDNAVVEAVVPGLSTNPDNVKRVEALISEQKWDALFPERNVVYTYSNFLKAVAKFKGFCATYTDERAAQSDAICAKSLAVMFAHFTQETGAHNPHSPYEEWRQGLFFVREAGCSEEASSCGYNSECAASNWQTEQWPCGTNPDGSYVKYFGRGAKQLSYHYNYGPFSDFIFNDVNVLLQDPDRVADSWLNLASAVFFFVYPQPPKPSMLHVIDGTWQPTAADIAEKRVPGFGVTTMIINGGIECTLDTEKPQSVNRIKYYRGHAAALGVAIPADEQLGCAGMKAFKKTGDSTFGLYWENDWSYYPDNPGGSSFACRIESGYQTAHTTLKKGDYAKCIQKYYGVTIE
modifications: PelB signal peptide; 6xHis tag; Chitinase 2
Turning to B3, in series [1] (Culture supernatant fraction), the Specific activity worked out at 0.04 U/mg. Moreover, the Specific activity in series [1] (setting [3]) was determined as 5.36 U/mg. In addition, in series [2], the “Km (enzyme-substrate affinity)” value was found to be 61.8 mg/mL and the “Vmax (maximum reaction velocity)” value was 175.4 U/ml. The “growth inhibition of Gibberella zeae” value with Gibberella zeae is reported as “xx”. Further, the “growth inhibition of Fusarium oxysporum in the MIC test” value in the series on Fusarium oxysporum was “xx”.
